Measured values reported in patent US20070100561A1, “Crystals of DPP-IV” (priority 2002, published 2007).

How the values were obtained:
[1] = target: T1, DPP-IV (Homo sapiens, UniProt P27487); experiment: Biacore surface plasmon resonance binding to immobilized DPP-IV; conditions: ADA from bovine
T1 construct: The ectodomain of DPP-IV, residues 31-766 (sDPP-IV), was amplified by PCR using a cDNA; made in house; host or cells: Pichia pastoris strain GS115 (pPICZα-A vector)
Procedure: DPP-IV was immobilized on a CM5 surface plasmon resonance sensor (Biacore) using standard amide coupling chemistry. The organic adlayer on this sensor type consists of carboxymethylated dextran (MW≈100 kDA). After activation of the carboxylic acid groups using carbodiimide/N-hydroxysuccinimide solutions, the surface was contacted with a DPP-IV solution (80 μl) containing≈100 μg/ml protein in acetate buffer (10 mM, pH 4.5). […] The surfaces of two flow cells were modified with protein. […] Hepes buffer (0.01 M Hepes, pH 7.4, 0.15 M NaCl, 3 mM EDTA, 0.005% polysorbate 20 (v/v)) was used as the running buffer. Diprotin-A was disolved directly in this buffer. […] The final inhibitor solution contained less than 0.1% DMSO. Binding experiments were carried out by contacting the immobilized protein surfaces with inhibitor solutions of varying concentrations at a flow rate of 10 μl/min or 30 μl/min. After each contact with inhibitor, the protein surfaces were regenerated by extensively washing with running buffer.

[2] = target: T2, sDPP-IV (soluble extracellular domain of human dipeptidyl peptidase IV) (Homo sapiens, UniProt P27487); experiment: DPP-IV activity assay, fluorescence of products from Ala-Pro-7-amido-4-trifluoromethylcoumarin; type: biochemical; conditions: Lineweaver-Burk plots; 50 mM Tris/HCl pH 7.8, 100 mM NaCl, 0.1 mg/ml BSA, 0.5% dimethylformamide; 25° C.
T2 construct: The ectodomain of DPP-IV, residues 31-766 (sDPP-IV), was amplified by PCR using a cDNA; made in house; host or cells: Pichia pastoris strain GS115 (pPICZα-A vector)
Procedure: A 20 mM stock solution in 10% DMF is stored at −20° C. until use. […] DPP-IV activity assays were performed in 96 well plates in a total assay volume of 100 μl. The assay buffer consists of S-Buffer containing 0.1 mg/ml BSA. […] Initial rate constants are calculated by best fit linear regression.

B1: ADA: adenosine deaminase, Sigma Type IV, from calf intestinal mucosa (bovine) (protein)
chain: AQTPAFNKPKVELHVHLDGAIKPETILYYGRKRGIALPADTPEELQNIIGMDKPLSLPEFLAKFDYYMPAIAGCREAVKRIAYEFVEMKAKDGVVYVEVRYSPHLLANSKVEPIPWNQAEGDLTPDEVVSLVNQGLQEGERDFGVKVRSILCCMRHQPSWSSEVVELCKKYREQTVVAIDLAGDETIEGSSLFPGHVKAYAEAVKSGVHRTVHAGEVGSANVVKEAVDTLKTERLGHGYHTLEDATLYNRLRQENMHFEVCPWSSYLTGAWKPDTEHPVVRFKNDQVNYSLNTDDPLIFKSTLDTDYQMTKNEMGFTEEEFKRLNINAAKSSFLPEDEKKELLDLLYKAYGMPSPA
koff (dissociation rate) of ADA [1]: 8.75e-05 s⁻¹
kon of ADA [1]: 29800 M⁻¹ s⁻¹

B2: sDPP-IVdeglycos: enzymatically deglycosylated sDPP-IV (EndoF1-GST treated) (protein)
chain: GTDDATADSRKTYTLTDYLKNTYRLKLYSLRWISDHEYLYKQENNILVFNAEYGNSSVFLENSTFDEFGHSINDYSISPDGQFILLEYNYVKQWRHSYTASYDIYDLNKRQLITEERIPNNTQWVTWSPVGHKLAYVWNNDIYVKIEPNLPSYRITWTGKEDIIYNGITDWVYEEEVFSAYSALWWSPNGTFLAYAQFNDTEVPLIEYSFYSDESLQYPKTVRVPYPKAGAVNPTVKFFVVNTDSLSSVTNATSIQITAPASMLIGDHYLCDVTWATQERISLQWLRRIQNYSVMDICDYDESSGRWNCLVARQHIEMSTTGWVGRFRPSEPHFTLDGNSFYKIISNEEGYRHICYFQIDKKDCTFITKGTWEVIGIEALTSDYLYYISNEYKGMPGGRNLYKIQLSDYTKVTCLSCELNPERCQYYSVSFSKEAKYYQLRCSGPGLPLYTLHSSVNDKGLRVLEDNSALDKMLQNVQMPSKKLDFIILNETKFWYQMILPPHFDKSKKYPLLLDVYAGPCSQKADTVFRLNWATYLASTENIIVASFDGRGSGYQGDKIMHAINRRLGTFEVEDQIEAARQFSKMGFVDNKRIAIWGWSYGGYVTSMVLGSGSGVFKCGIAVAPVSRWEYYDSVYTERYMGLPTPEDNLDHYRNSTVMSRAENFKQVEYLLIHGTADDNVHFQQSAQISKALVDVGVDFQAMWYTDEDHGIASSTAHQHIYTHMSHFIKQCFSLP
Km [2]: 17.2 µM
kcat [2]: 43.1 s⁻¹

B3: sDPP-IVglycos: glycosylated sDPP-IV (protein)
chain: GTDDATADSRKTYTLTDYLKNTYRLKLYSLRWISDHEYLYKQENNILVFNAEYGNSSVFLENSTFDEFGHSINDYSISPDGQFILLEYNYVKQWRHSYTASYDIYDLNKRQLITEERIPNNTQWVTWSPVGHKLAYVWNNDIYVKIEPNLPSYRITWTGKEDIIYNGITDWVYEEEVFSAYSALWWSPNGTFLAYAQFNDTEVPLIEYSFYSDESLQYPKTVRVPYPKAGAVNPTVKFFVVNTDSLSSVTNATSIQITAPASMLIGDHYLCDVTWATQERISLQWLRRIQNYSVMDICDYDESSGRWNCLVARQHIEMSTTGWVGRFRPSEPHFTLDGNSFYKIISNEEGYRHICYFQIDKKDCTFITKGTWEVIGIEALTSDYLYYISNEYKGMPGGRNLYKIQLSDYTKVTCLSCELNPERCQYYSVSFSKEAKYYQLRCSGPGLPLYTLHSSVNDKGLRVLEDNSALDKMLQNVQMPSKKLDFIILNETKFWYQMILPPHFDKSKKYPLLLDVYAGPCSQKADTVFRLNWATYLASTENIIVASFDGRGSGYQGDKIMHAINRRLGTFEVEDQIEAARQFSKMGFVDNKRIAIWGWSYGGYVTSMVLGSGSGVFKCGIAVAPVSRWEYYDSVYTERYMGLPTPEDNLDHYRNSTVMSRAENFKQVEYLLIHGTADDNVHFQQSAQISKALVDVGVDFQAMWYTDEDHGIASSTAHQHIYTHMSHFIKQCFSLP
Km [2]: 15.5 µM
kcat [2]: 37.3 s⁻¹
